Results reported in the supplement of paper PMC9170038.

System: MS2 coat protein
Assay: apparent KD of MS2 coat protein; designed switch direction (-1 OFF switch, 1 ON switch): -1; higher = weaker reporter binding
Method in brief: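 Stalled E. coli RNA polymerase transcribed designed RNA switches on Illumina chips, which were then titrated with SNAP-549-labelled MS2 coat protein, doubling from 0.7 or 1.5 nM to 3 µM. Steps lasted from 0.8–1.5 h at the lowest concentration to 10–20 min at the highest. The apparent KD is each design's median over clusters of curve-fitted normalised fluorescence.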

[1] = Eterna round: R95, input ligand: microRNA oligo, concentration not stated
[2] = Eterna round: R95, input ligand: FMN 200 uM
[3] = Eterna round: R95, input ligand: none
[4] = input ligand: microRNA oligo, concentration not stated

Sequence	apparent KD of MS2 coat protein [1]	apparent KD of MS2 coat protein [2]	apparent KD of MS2 coat protein [3]	apparent KD of MS2 coat protein (input ligand: FMN 200 uM)	apparent KD of MS2 coat protein [4]	apparent KD of MS2 coat protein (input ligand: none)
AAUAACAGAGGAUAUACUAUUUUAUGUAUUUAUUAUUUUAAACAUGAGGAUCACCCAUGUAGAAGGCUGAUUAA [JMF 42] (puzzle: Exclusion 2)	0.0308 µM					
AAUAACAGAGGAUAUACUGUUUUAUGUAUUUAUUAUUUUGAACAUGAGGAUCACCCAUGUAGAAGGCUGAUUAA [JMF 48] (puzzle: Exclusion 2)	0.0296 µM					
AAUAACUGAGGAUAUACUAUAAUAUGAAUAAAAUAAAUAAAACAUGAGGAUCACCCAUGUAGAAGGCAGAAUAA [JMF's Not so obvious solution 9] (puzzle: Exclusion 2)	0.0178 µM	0.0232 µM	0.0241 µM			
AAUAAGAAGUAAGGAUAUCUGAAAGGAAGUGUAAGAGAAGGUACGGUGACGUCAGAACGACAUGAGGAUCACCCAUGUAAAGAA [PowerStrip EXNG 1.11] (Eterna round: R96, puzzle: Exclusion NG 1)				0.079 µM	0.0696 µM	0.0939 µM
AAUAAGCUAGGAUAUACAUGAGGAUCACCCAUGUGAGGGCACGGCCGGCGCGGGCCCGGUAGAAGGAGUCAUAA [Exc;s3-VI] (puzzle: Exclusion 3)	0.0264 µM					
AAUAAGGGAGGAUAUACAUGAGGAUCACCCAUGUUUGUAAUUUAAUUCGGGAGUAUUAGUAGAAGGCCCAAUAA [lam1] (Eterna round: R97, puzzle: Exclusion 3)				0.278 µM		0.0595 µM
AAUAAUUGUGACUUGGGUGACAUGAGGAUCACCCAUGUCACAAGCUUGUUGCUCGCCUUGUAAUUAACCCAUGUCAC [LRO Sensor-off var1-27 mod of Stov1-13-A1 by Brourd] (Eterna round: R97, puzzle: Sensor, turn-off variant 1)				0.0222 µM		0.0208 µM
AAUACAAGCUAUUGAUCCCACAUGAGGAUCACCCAUGUACCUGGCCGUGAGACCAGGUUUACAAUAGCUCGUCUUAU [Sensor-V1 #48] (Eterna round: R97, puzzle: Sensor, turn-off variant 1)				0.107 µM		0.0938 µM
AAUACAAGCUAUUGAUCCCACAUGAGGAUCACCCAUGUAGGAGGCGGUGACACCUCCUUUACGAUAGCUCGUCUUAU [Sensor-V1 #53] (Eterna round: R97, puzzle: Sensor, turn-off variant 1)				0.213 µM		0.219 µM
AAUACAAGCUAUUGAUCCCACAUGAGGAUCACCCAUGUAUAUGCCGGUGACACCUGCAUGACGAUAGCUCGUCUUAU [Sensor-V1 #59] (Eterna round: R97, puzzle: Sensor, turn-off variant 1)				0.577 µM		0.758 µM
AAUACCCUGUUAGGAUAUAAUACCGAAGGAGUAUUAGAAGGGACAGUAAGGUACAUGAGGAUCACCCAUGUGAGAAUCUGUGCC [Edanxeve] (Eterna round: R96, puzzle: Exclusion NG 1)				0.107 µM	0.0653 µM	0.0754 µM
AAUAGCAAGUAGAUCCUAAACAUGAGGAUCACCCAUGUGCUCGUCUUGUAAAGUACUAUCACGAAAGUGAUAGUACA [Sensor 3, v1 - 57] (puzzle: Sensor v3, turn-off variant 1)	0.3 µM	0.151 µM	0.233 µM			
AAUCCACAUGAGGAUCACCCAUGUGAGGAUAUGAUACUAUGUACUUCGGUACAUAGUAUCAGAAGGCACAUAAA [Ex1-3: 51] (Eterna round: R96, puzzle: Exclusion 1)				0.153 µM	0.0258 µM	0.0278 µM
